Data reported in publication PMC4705653.

Key:
Sld3 = Sld3 (UniProt P53135); assay: anti-Mcm2 co-IP, Sld3 blot; conditions: reference: wild-type mcm2; sites S164,S170
[1] = molecular target: GST-Mcm10 (budding yeast) (UniProt P32354); assay: pull-down; 30 pmol GST-tagged protein on Glutathione Sepharose, varying concentrations of 32P-labelled PKA-tagged protein in solution; GST binding buffer (40 mM Tris–HCl pH 7.5, 100 mM NaCl, 0.1 mM EDTA, 10% glycerol, 0.1% Triton X-100, 1 mM DTT, 0.1 mg/ml BSA), 100 μl, 30°C, 10 min; SDS-PAGE and phosphorimaging; in some panels with 5 mM ATP or ATPγS, or with a third labelled protein (Mcm10, Sld3) added
Sequence of GST-Mcm10 (budding yeast) (P32354 whole entry): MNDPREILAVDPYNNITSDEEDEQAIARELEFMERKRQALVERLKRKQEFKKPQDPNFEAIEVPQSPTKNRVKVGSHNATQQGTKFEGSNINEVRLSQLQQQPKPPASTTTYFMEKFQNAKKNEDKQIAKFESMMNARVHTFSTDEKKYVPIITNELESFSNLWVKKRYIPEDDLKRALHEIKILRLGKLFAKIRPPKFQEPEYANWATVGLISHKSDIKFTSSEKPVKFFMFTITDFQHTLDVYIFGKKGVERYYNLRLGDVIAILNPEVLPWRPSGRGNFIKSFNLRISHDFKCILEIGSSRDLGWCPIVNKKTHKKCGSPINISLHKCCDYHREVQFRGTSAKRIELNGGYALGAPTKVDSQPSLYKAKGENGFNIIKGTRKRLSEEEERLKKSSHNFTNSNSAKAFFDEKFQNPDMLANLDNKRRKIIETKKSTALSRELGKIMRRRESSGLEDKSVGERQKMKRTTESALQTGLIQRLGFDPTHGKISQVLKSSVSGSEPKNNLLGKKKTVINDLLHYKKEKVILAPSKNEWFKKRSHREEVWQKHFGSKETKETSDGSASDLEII

| binding against the reference (Sld3) | signal relative to GST alone [1] [times] | Substance |
| --- | --- | --- |
| lost | – | Mcm2 (from UniProt P29469) mcm2-2A (S164A S170A) |
| – | > 10 | PKA-Mcm2–7 complex (radiolabeled, wild type), P29469 1-868; P24279 1-971; P30665 1-933; P29496 1-775; P53091 1-1017; P38132 1-845 |
